# Assay results reported in the RNAGym collection of RNA variant scans (doi:10.1073/pnas.2313332121).
# B1: TPR t1 (parent)
# chain: GACCAAUCUGCCCUCAGAGCUCGAGAACAUCUUCGGAUGCAGAGGAGGCAGGCUUCGGUGGCGCGAUAGCGCCAACGUCCUCAACCUCCAAUGCAUCCCACCACAUGAUGAUGCCUGAAGAGCCUUGGUUUUUUG
# Variants of: B1
# Assay: polymerase ribozyme fitness, log enrichment relative to wild type (log ratio); higher = more active; in vitro selection for triplet polymerase activity
# Outline: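 PCR was used to build mutant libraries for each subunit of a heterodimeric triplet polymerase ribozyme, which were then transcribed. A single in vitro selection round, in triplicate, used a frozen incubation at −7 °C and recovered extended constructs by gel excision, streptavidin beads and RT-PCR. Fitness is the logarithm of genotype enrichment relative to wild-type enrichment, averaged over replicates with inverse-variance weights. The logarithm is base 2, and after Illumina sequencing only genotypes with ≥10 input reads and ≥1 read per output were kept.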
row,Variant,polymerase ribozyme fitness (log ratio)
1,GACCAAUCUGCCCUCAGAGCUCGAGAACAUCUUCGGAUGCAGAGGAGGCGGGCUUCGGUGGCGCGAUAGCGCCAACGUCCUCAACCUCCAAUGCAUCCCACCAUAUGAUGAUGCCUGAAGAGCCUUGGUUUUUUG [A50G C104U],-0.208
2,GACCAAUCUGCCCUCAGAGCUCGAGAACAUCUUCGGAUGCAGAGGAGGCAGGCUUCGGUGGCGCGAUAGCGCCAACGUCCUCAACCUCCAAUGCAUCCCACCACAUGAUGAUACCUGAAGAGCGUUGGUUUUUUG [G113A C124G],-0.302
3,GACCAAUCUGCCCUCAGAGCUCGAGAACAUCUUCGGAUGCAGAGGAGGCAGGCUUGGGUGGCGCGAUAGCGCCAACGUCCUCAACCUCCACUGCAUCCCACCACAUGAUGAUGCCUGAAGAGACUUGGUUUUUUG [C56G A91C C123A],0.632
4,GACCAAUCUGCCCUCAGAGCUCGAGAACGUCUUCGGAUGCAGAGGAGGCAUGCUUCGGUGGUGCGAUAGCGCCAACGUCCUGAACCUCCAAUGCAUCCCACCACAUGAUGAUGCCUGAAGAGCCUUGGUUUUUUG [A29G G51U C62U C82G],-4.8
5,GACCAAUCUGCCCUCAGAGCUCGAGAACAUCUUCGGAUGCAGAGGAGGCAGGCUUUGGUGGCGCGAUAGCGCCAACGUCCUCAACCUCCAAUGCAUCCCACCACAUGAUGAUGCAUGAAGAGCCUUGGUUUUUUG [C56U C115A],0.248
6,GACCAAUCUGCCCUCAGAGCUCGGGAACAUUUUCGGAUGCAGAGGAGGCAGGCUUCGGUCGCGCGAUAGCGCCAACGUCCUCAACCUCCAAUGCAGCCCACCACAAGAUGAUGCCUGAACAGCCUUGGUUUUUUG [A24G C31U G60C U96G U106A G120C],-4
7,GACCAAUCUGCCCUCAGAGCUCGAGAACAUCUUCGGAUGCAGAGGAGGCAGGCUUCGGUGGCGCGAUAGCGCCAACGGCCUCAACCUGCAAUGCAUCCCACCACAUGAUGAUGCCUGAAGAGCCUUGGUUUUUUG [U78G C88G],-0.734
8,GACCAAUCUGCCCUCAGAGCUCGAGAACAUCUUCGGUUGCACAGGAGGCAGGCUUCCGUGGCGCGAUAGUGCCAACGUCCUCAACCUCCAAUGCAUCCCACCACAUGAUGAUGCCUGAAGAGCCUUGGAUUUUUG [A37U G42C G57C C70U U129A],-5
9,GACCAAUCUGGCCUCAGAGCUCGAGAACAUCUUCGGAUGCAGAGGAGGCACGCUUCGGUGGCGCGAUAGCGCCAACGUCCUCAGCCUCCAAUGCAUCCCACCACAUGAUGAUGCCUGAAGAGCCUUGGUUCUUUG [C11G G51C A84G U131C],-3.58
10,GACCAAUCUGCCCUCAGAGCUCGAGAACAUCUUCGGAUGCAGAGGAGGCAGGCUGCGGUGGCGCGAUAGCGCCAACGUCCUAAACCUCCAAUGCAUCCCACCACAUGAUGAUGCCUGAAGAGCCUUGGUUUUUUG [U55G C82A],-0.266
11,GAUCAAUCUGCCUUCAGAGCUCGAGAACAUCUUCGGAUGCAGAGGAGGCAGGCUUCGGUGGCGCGAUAGCGCCAACGUCCUCAACCUCCAAUGCAUCCCACCAAAUGAUGAUGCCUGAAGAGCCUUGGUUUUUUG [C3U C13U C104A],-1.31
12,GACCAACGUGCCCUCAGAGCUCGAGAACAUCUUCGGAUGCAGAGGAGGCAGGCUUCGGUGACGCGAUAGCGCCAACGUACUCAACCUCCAAUGCAUCCCACCACAUGAUAAUGCCUGAAGAGCCUUGGUUUUUUG [U7C C8G G61A C79A G110A],-2.75
13,GACCAAUCUGCCCUCAGAGCUCGAGAACAUCUUCGGAUGCAGAUGAGGCAGGCUUUGGUGGCGCGAUAGCGCCAACGUCCUCAACCUCCAAUGCAUCCCACCACAUGAUGAUGCCUGAAGAGCCUUGGUUUUUUG [G44U C56U],-0.616
14,GACCAAUGUGCCCUCAGAGCUCGAGAACAUCUUCGGAUGCAGAGGAGGCAGGCUUCGGUGGCGCGAUAGCGACAACGUCCUCAACCUCAAAUGGAUCCCACCACAUGAUGAUGCCUGAAGAGCCUUGGUUUUUUG [C8G C72A C89A C94G],-1.88
15,GACCAAUCUGCCCUCAGAGCUCGAGAACAUCUUCGGAUGCAGAGGAGGCAGGCUUCGGUGUCGCGAUAGCGCCAACAUCCUCAACCUCCAAUGCAUCCCACCACAUGAUGAUGCCUGAAGAGCCUUGGUUUUUUG [G61U G77A],-0.736
16,GACCAAUCUGCCCUCAGAGCUCGAGAACAUCUUCGGAUGCAGAGGAGUCAGGCUUCGGUGGCGCGAUAACGCCAACGUCCUCAAGCUCCAAUGCAUCCCACCACAUGAUGAUGCCUGAAGAGCCUUGGUUUUUUG [G48U G69A C85G],-3.42
17,GACCAAUCUGCCCUCAGAGCUCGAGAACAUCUUCGGAUGCAGGGGAGGCAGGCUUCGGUGGCGCGAUACCGCCAACGUCCUCAACCUCCAAUGCAUCCCACCACAUGAUGAUGCCUGAAGAGCCUUGGUUUUUUG [A43G G69C],-2.38
18,GACCAAUCUGCCCUCAGAGCUCGAGAACAUCUUCGGAUGCAGAGGAGGCAGGCUUCGGUGGCGCGAUAGCGCCAACGUCCUCAACCUCCAAUGCAUCCUACCACAUGAUGAUGCCUGAAGUGCCUUGGUUUUUUG [C99U A121U],-0.669
19,GACCAAUCUGCCCUCAGAGCUCGCGAACAUCUUCGGAUGCAGAGGAGGCAGGCUUCGGUGGCGCGAUAGCGCCAACGUCCUCAACCUCCAAUGCAUCCCAGCACAUGAUGAGGCCUGAAGAGCCUUGGUUUUUUG [A24C C101G U112G],-6.34
20,GACCAAUCUGCCCUCAGAGCUCGAGAACAUCUUCGGAUGCAGAGGAGGCAGGAUUCGGUGGCGCGAUAGCGCCAACGUCCUCAACCUGCAAUGCAUCCCACCAAAUGAUGAUGCCUGAAGAGCCUUGGAUUUUUG [C53A C88G C104A U129A],-3.51
21,GACCAAUCUGCCCUCAGAGCUCGAGACCAUCUUCGAAUGCAGAGGACGCAGGCUUCGGUGGCGCGAUAGCGCCAACGUCCUCAACCUCCAAUGCAUCCCACCACAUGAUGAUGCCUGAAGAGCCUUGGUUUUUUG [A27C G36A G47C],-4.8
